# B1: TPR t1 (parent)
# chain: GACCAAUCUGCCCUCAGAGCUCGAGAACAUCUUCGGAUGCAGAGGAGGCAGGCUUCGGUGGCGCGAUAGCGCCAACGUCCUCAACCUCCAAUGCAUCCCACCACAUGAUGAUGCCUGAAGAGCCUUGGUUUUUUG
# Variants of: B1
# Experiment: polymerase ribozyme fitness, log enrichment relative to wild type (log ratio); higher = more active; in vitro selection for triplet polymerase activity
# Procedure, shortened: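 Fitness compares each genotype's enrichment to that of the wild type on a logarithmic scale, averaging replicates with inverse-variance weights. The logarithm is base 2. Enrichment came from Illumina sequencing of input and output libraries after one triplicate round of in vitro selection, which included frozen incubation at −7 °C, of PCR-built, transcribed mutant libraries of each subunit of a heterodimeric triplet polymerase ribozyme. Only genotypes with ≥10 input reads and ≥1 read per output were kept.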
row,Variant,polymerase ribozyme fitness (log ratio)
1,GACCCAUCUGCCCUCAGAGCUCGAGAACAUCUUCGGAUGCAGAGUAGGCAGGCUUCGGUGGUGCGAUAGCGCCAACGUCCUCAACCUCCAAUGCAUCCCACCACAUGAUGAUGCCUGAAGAGCCUUGGUUUUUUG,-1.97
2,GACCGAUCUGCCCUAAGAGCUCGAGAACAUCUUCGGAUGCAGAGGAGGCAGGCUUCGGUGACGCGAUAGCGCCAACGUCCUCAACCUCCAAUGCAUCCCACCACAUGAUGAUGCCUGAAGAGCCUUGGUUUUUUG,-0.776
3,GACCAAUCUGCCCUCAGAGCUCGAGAACAUCUUCGGAUGCAGAGGAGGCAGGCUUCGGUGGCGCGAUAGCGCCAACGUCCUCAAUCUCCAAUGCAUCCCACCACAUGAUGAUGCCUGAACAGCCUUGGUUUUUUG,0.93
4,GACCAAUUUGCCCUCAGAGCUCGAGAACAUCUUCGGAUGCAGAGGAGGCAGGCUUCGGUGGCGCGAUAGCGCCAACGGCCUCAACCUCCAAUGCAUCUCACCACAUGAUGAUGCCUGAAGAGCCUUGGUUUUUUG,-0.651
5,GACCAAUCUGCACUCAGAGCUCGAGAACAUCUUCGGAUGCAGAGGAGGCAGGCUUCGGUGGCGCGAUACCGCCAACGUCCUCAAACUCCAAUGCAUCCCACCACAUGAUGAUUCCUGAAGAGCCUUAGUCUUUUG,-7.98
6,GACCAAUCUGCUUUCAGAGCUCGAGAACAUCUUCGGACGAAGAGGAGGCAGGCUUCGGUGGCGCGAUAGCGCCAACGUCCUCAACCUCCAUUGCAUCCCACCACAUGAUGAUGCCUGAAGAGCCUUGGUUUUUUG,-3.21
7,GACCUAUCUGCCCUCAGAGCUCGAGAACAUCUUCGGAUGCAGAGGAGGCAGGCUUCGGUGGCGCGAUAGCGCCAACGUCCUCAACCUCCAAUGCAUCCCACCACAUGAUGAUGCCUGAAGAGCCUUGGUGUUUUG,-0.49
8,GACCAAUUUGCCCUCAGAGCUCGAGAACAUCUUCGGAUGCAGAGGAGGCAGGCUUCGGUGGCGCGAUAGCGCCAAGGUCCUCAACCUCCAAUGCAACCCACCACAUGAUGAUGCCUGAAUAGCCUUGGCUUUUUG,0.287
9,GACCAAUUUGGCCUCAGAGCUCGAGAACAUCUUCGGAUGCAGAGGAGCCAGGCUUUGGUGGCGCGAUAGCGCCAACGUCCUCAACCUCUAAUGCAUCCCACCACAUGAUGAUGCCUUAAGAGCCUUGGUUUUUUG,-1.01
10,GACCAAUCUGCCCUCAGAGCUCGAGAACAUCUUCGCAUGCAUAGGAGGCAGGCUUGGGUGGCGCGAUAGCGCCCACGUCCUCAACCUCCAAUGCAUCCCACCACAUUAUGAAGACUGAAGAGCCUUGGUUUUUUG,-7.54
11,GACCAAUCUUCCCUCCGAGCUCGAGAACAUCUUCGGAUGCAGAGGAGGUAGGCUUCGGUGGCGCGAUAGCGCCAACGUCCUCAACCUCCAAUGCAUCCCACCACAUGAUGAUGCCUGGAGAGCAUUGGUUUUUUG,-2.5
12,GACCAAUCUGCCCUCAGAGCUCGAGAACAUCUUCGUAUGCAGAGGAGGCACGCUUCGGUGGCGCGAUAUCGCCAACGUCCUCAACCUCCAAUGCAUCCCACCACAUGAUGAUGCCUGAAGAGCCUUGGUUUUUUG,-2.55
13,GACCAAUCUGCCCUCAGAGCUCGAGAACAUCUUUGGAUGCAGAGGAGGCAGGCUUCGGUGGCGCGAUAGCGCCAACGUCCUCAACCUCCAAAGCAUCCCACCACAUGAUGAUGCCUGAAGAGCCUUGGUUUUUUG,-6.09
14,GACCAAUCUGCCGUCAGAGCUCGAGAACAUCUUCGGAUGCAGAGGAGGCAGGCUUGGGUGGCGCGAUACCGCCAACGUCCUCAACCUCAAAUGCAUCCCACCACAUGAUGAUGCCUUAAGAGCCUUGGUUUUUUG,-6.43
15,GACCAAUCUGACCUCAGAGCUCGAGAACAUCUUCGGAUGCAGAGGAGGCAGGCUUCGGUGGCGUGAUAGCGCCAACGUCCUCAACCUCCAAUGCAUCCCACCACAUGAUGAUGCCUGAAGAGCCUUGGUUUUUUG,-1.04
16,GACCAAUCUGCCCUCAGAGCGCGAGAACAUCUUCGGAUGCAGAGGAGGCAGGCUUCGGAGGCGCGAUAGCGCCAACGUCCUCUACCUCCAAUGCAUCCCACCACAUGAUGAUGCCUGAAGAGUCUUGGUUCUUUG,-0.796
17,GACCAAUCUGCCCUCAGCGCUCGAGAACAUCUUCGGAUGCAGAGGAGGCAGGCUUCGGUGGUGCGAUAGCGCCAACGUCCUCAACCCCCAAUGCAUCCCACCACAUGAUGAUGCCUGAAGAGCCUUGGUUUUUUG,-3.61
18,GACCAAUCUGCCCUCAGAGCUCGAGAACAUCUUCGGAUGCAGAGGAGGCAGGCUUCGGUGGCACGAUAGCGCCAACGUCCUCAACCUCCAAUGCAUCCCACCACAUAAUGAUGCCUGAAGAGCCUUGGUUUUUUG,-6.55
19,GACCAAUCUGCCCUCAGAGCUCGAGAACAUCUUCGGAUGCAGAGGAGACAGGCUUCGGUGUCGCGAUAGCGCCAACGCCCUCAACCUCCAAUGCAUCCCACCACAUGAUGAUGCCUGAAGAGCCUUGGUUUUUUG,-0.213
20,GACCAAUCUGCCCUCAGAGCUCGAGAACAUCUUCGGAUGCAGAGGAGGCAGGCUUCGGUGGCGCGAUAGCGCCAACGUCCUCAACCUCCAAUGCAUCCCUUCAAAUGAUGAUGCCUGAAGAGCCUUGGUUUUUUG,-2.87
21,GACCAAUCUGCCCUUAGAGCUCGAGAACAUCUUCGGAUGCAGAGGAGGCAGGCUUCGGUGGCGCAAUAUCGCCAACGUCCUCAACCGCCAAUGCAUCCCACCACAUGAUGAUGCCUGAAGAGCCUUGGUUUUUUG,-4.77

# From the RNAGym collection of RNA variant scans (doi:10.1073/pnas.2313332121)
